The values that follow come from patent US8409577.

The test addresses T1, CD20 (human) (UniProt P11836).
T1 sequence (looked up): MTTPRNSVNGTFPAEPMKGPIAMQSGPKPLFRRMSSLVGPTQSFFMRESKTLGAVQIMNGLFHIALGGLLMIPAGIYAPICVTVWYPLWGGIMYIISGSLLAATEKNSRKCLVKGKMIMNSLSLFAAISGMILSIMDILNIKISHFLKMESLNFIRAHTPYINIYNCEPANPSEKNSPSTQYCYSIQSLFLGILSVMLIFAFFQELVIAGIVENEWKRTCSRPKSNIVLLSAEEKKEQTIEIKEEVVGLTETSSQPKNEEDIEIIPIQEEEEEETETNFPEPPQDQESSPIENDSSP
The experiment in a line: competition, flow cytometry on Ramos B cells; competitor PE-labeled monoclonal anti-CD20 antibody 3 ug/ml. Background: In flow cytometry, cells or beads pass a laser one at a time.

Regarding “CD20×CD37 bispecific scorpion (015×016) (bispecific antibody)”, the IC50 (read off the curve) was found to be 4 nM.
